Results: publication PMC8985225

Tests used:
[1] = target: Ca^2+/CaM-dependent kinase II α (CaMKIIα) holoenzyme (rodent) (UniProt P11275)
[2] = target: Ca^2+/CaM-dependent kinase II β (CaMKIIβ) holoenzyme (rodent) (UniProt P08413)
UniProt P08413, sequence (P08413 whole entry): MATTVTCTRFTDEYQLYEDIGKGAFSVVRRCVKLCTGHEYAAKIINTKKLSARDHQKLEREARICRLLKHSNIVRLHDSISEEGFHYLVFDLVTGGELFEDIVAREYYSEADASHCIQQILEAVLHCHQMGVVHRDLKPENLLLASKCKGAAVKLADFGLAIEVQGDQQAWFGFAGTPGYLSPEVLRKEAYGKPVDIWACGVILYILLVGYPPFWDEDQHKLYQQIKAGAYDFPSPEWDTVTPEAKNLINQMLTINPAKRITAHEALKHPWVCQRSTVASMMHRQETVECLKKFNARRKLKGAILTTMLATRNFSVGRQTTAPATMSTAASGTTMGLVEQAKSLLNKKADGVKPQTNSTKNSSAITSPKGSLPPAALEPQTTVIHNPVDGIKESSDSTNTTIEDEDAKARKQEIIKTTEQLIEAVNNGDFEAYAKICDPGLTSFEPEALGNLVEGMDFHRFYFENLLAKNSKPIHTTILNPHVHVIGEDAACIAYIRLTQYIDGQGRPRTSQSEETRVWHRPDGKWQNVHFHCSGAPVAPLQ

UniProt P11275, sequence (P11275 whole entry): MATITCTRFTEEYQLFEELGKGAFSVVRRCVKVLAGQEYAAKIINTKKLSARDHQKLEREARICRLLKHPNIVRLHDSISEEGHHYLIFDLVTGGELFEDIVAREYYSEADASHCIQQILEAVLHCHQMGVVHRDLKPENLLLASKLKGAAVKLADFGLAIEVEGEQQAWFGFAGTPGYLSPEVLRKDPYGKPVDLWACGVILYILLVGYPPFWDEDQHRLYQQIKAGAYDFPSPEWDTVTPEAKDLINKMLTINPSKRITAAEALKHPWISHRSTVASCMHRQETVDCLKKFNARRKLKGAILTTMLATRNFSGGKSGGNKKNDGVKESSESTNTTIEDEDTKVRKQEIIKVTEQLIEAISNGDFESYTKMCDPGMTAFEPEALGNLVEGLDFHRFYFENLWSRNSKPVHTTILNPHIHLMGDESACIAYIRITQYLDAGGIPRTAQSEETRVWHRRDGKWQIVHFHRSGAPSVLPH

With “Calmodulin (from UniProt P0DP23 1-149) (natural protein)” the EC50 of CaM for in vitro CaMKII kinase activity (phosphorylation of syntide-2; 0.6 nM to 6 μM CaM) [1] was 30.1 nM and the EC50 of CaM for in vitro CaMKII kinase activity (phosphorylation of syntide-2; 0.6 nM to 6 μM CaM) [2] was 14.6 nM.
